The values that follow are results of earlier work, collected in PMC3789827.

The target in data set [1] is BMPR1A ECD (Homo sapiens) (UniProt P36894). In words: SPR (Biacore).
For data set [2], the target named is BMPR1B ECD (Homo sapiens) (UniProt O00238). In words: SPR (Biacore). In general terms: Surface plasmon resonance follows binding to a sensor surface in real time, without labels.
BMPR1B ECD (Homo sapiens), sequence (O00238 14-126): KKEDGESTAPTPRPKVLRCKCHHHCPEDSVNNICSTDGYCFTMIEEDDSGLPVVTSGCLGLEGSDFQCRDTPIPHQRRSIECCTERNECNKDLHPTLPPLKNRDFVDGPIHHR

GDF5, sequence (P43026 382-501): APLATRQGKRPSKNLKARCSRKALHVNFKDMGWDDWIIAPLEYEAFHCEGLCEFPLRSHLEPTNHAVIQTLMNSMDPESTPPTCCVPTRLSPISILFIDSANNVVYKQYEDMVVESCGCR
BMPR1A ECD (Homo sapiens), sequence (P36894 24-152): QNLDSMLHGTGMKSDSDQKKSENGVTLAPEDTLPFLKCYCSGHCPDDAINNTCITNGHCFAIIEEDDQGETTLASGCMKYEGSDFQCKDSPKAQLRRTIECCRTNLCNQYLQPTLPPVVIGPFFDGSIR

Regarding GDF5 (from UniProt P43026), the equilibrium dissociation constant (Kd) in data set [1] was 17 nM; in data set [2], 1.1 nM.

Broadly, the Kd is the free concentration of one partner at which half of the binding sites on the other are occupied at equilibrium, for simple one-to-one binding.
